This note sets out measurements from publication PMC9232852 (2022).

One assay has as its target T1, BTN2A1 ID271 (Homo sapiens, UniProt Q7KYR7).
T1 chain: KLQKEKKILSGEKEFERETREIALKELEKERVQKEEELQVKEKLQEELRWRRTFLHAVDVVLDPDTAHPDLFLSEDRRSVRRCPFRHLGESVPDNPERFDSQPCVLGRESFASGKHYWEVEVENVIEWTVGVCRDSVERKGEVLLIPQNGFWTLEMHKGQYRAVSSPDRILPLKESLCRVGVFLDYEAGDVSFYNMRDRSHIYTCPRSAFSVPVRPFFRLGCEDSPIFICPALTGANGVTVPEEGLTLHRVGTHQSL
In words: ITC.

In another assay the target is T2, BTN2A1 ID309 (Homo sapiens, UniProt Q7KYR7).
T2 chain: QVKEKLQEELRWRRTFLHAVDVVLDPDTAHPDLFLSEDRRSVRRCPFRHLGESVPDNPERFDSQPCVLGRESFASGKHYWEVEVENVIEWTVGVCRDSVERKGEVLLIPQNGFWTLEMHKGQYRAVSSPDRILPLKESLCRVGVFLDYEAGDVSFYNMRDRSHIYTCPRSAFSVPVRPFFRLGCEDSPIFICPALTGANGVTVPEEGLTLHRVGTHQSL
In words: ITC. For orientation: Isothermal titration calorimetry measures the heat released or taken up as one component is titrated into another.

B1: BTN3A1 B30.2 (protein)
chain: not shown
modifications: HMBPP
As usually defined, the Kd is the concentration at which binding is half-saturated. Take B1: in the assay with BTN2A1 ID271, the Kd amounted to 463 nM.

B2: BTN3A1 BFI (full intracellular domain) (protein)
chain: not shown
modifications: HMBPP
In the case of B2, the dissociation constant Kd was found to be 674 nM in the assay with BTN2A1 ID309 and 886 nM with BTN2A1 ID271.
